Source: publication PMC9516175

System: VIRP1 (Arabidopsis thaliana)
Assay: EMSA

Substance | binding signal (% of WT shifted)
HSVd WT | 100
PSTVd WT | 100
Q-satRNA WT | 100
